Assay results taken from US20140349340A1, “MBTH-LIKE PROTEINS IN THE PRODUCTION OF SEMI SYNTHETIC ANTIBIOTICS” (DSM SINOCHEM PHARMACEUTICALS NETHERLANDS B.V., priority 2012, published 2014).

B1: TycA: control protein; first one-module-bearing peptide synthetase for synthesis of tyrocidine by Bacillus brevis, phenylalanine-specific adenylation domain (protein, UniProt P09095 1-1088, looked up)
Tyrocidine synthase 1: MLANQANLIDNKRELEQHALVPYAQGKSIHQLFEEQAEAFPDRVAIVFENRRLSYQELNRKANQLARALLEKGVQTDSIVGVMMEKSIENVIAILAVLKAGGAYVPIDIEYPRDRIQYILQDSQTKIVLTQKSVSQLVHDVGYSGEVVVLDEEQLDARETANLHQPSKPTDLAYVIYTSGTTGKPKGTMLEHKGIANLQSFFQNSFGVTEQDRIGLFASMSFDASVWEMFMALLSGASLYILSKQTIHDFAAFEHYLSENELTIITLPPTYLTHLTPERITSLRIMITAGSASSAPLVNKWKDKLRYINAYGPTETSICATIWEAPSNQLSVQSVPIGKPIQNTHIYIVNEDLQLLPTGSEGELCIGGVGLARGYWNRPDLTAEKFVDNPFVPGEKMYRTGDLAKWLTDGTIEFLGRIDHQVKIRGHRIELGEIESVLLAHEHITEAVVIAREDQHAGQYLCAYYISQQEATPAQLRDYAAQKLPAYMLPSYFVKLDKMPLTPNDKIDRKALPEPDLTANQSQAAYHPPRTETESILVSIWQNVLGIEKIGIRDNFYSLGGDSIQAIQVVARLHSYQLKLETKDLLNYPTIEQVALFVKSTTRKSDQGIIAGNVPLTPIQKWFFGKNFTNTGHWNQSSVLYRPEGFDPKVIQSVMDKIIEHHDALRMVYQHENGNVVQHNRGLGGQLYDFFSYNLTAQPDVQQAIEAETQRLHSSMNLQEGPLVKVALFQTLHGDHLFLAIHHLVVDGISWRILFEDLATGYAQALAGQAISLPEKTDSFQSWSQWLQEYANEADLLSEIPYWESLESQAKNVSLPKDYEVTDCKQKSVRNMRIRLHPEETEQLLKHANQAYQTEINDLLLAALGLAFAEWSKLAQIVIHLEGHGREDIIEQANVARTVGWFTSQYPVLLDLKQTAPLSDYIKLTKENMRKIPRKGIGYDILKHVTLPENRGSLSFRVQPEVTFNYLGQFDADMRTELFTRSPYSGGNTLGADGKNNLSPESEVYTALNITGLIEGGELVLTFSYSSEQYREESIQQLSQSYQKHLLAIIAHCTEKKEVERTPSDFSVKGLQMEEMDDIFELLANTLR
B2: BpsB_M2_A: purified adenylation domain of BpsB module M2 (SEQ ID NO: 5); Amycolatopsis balhimycina (protein, listed as Amycolatopsis balhimycina)
chain: VGRLGVTSEPTRAAVVERWNSTGEAAAETSVLELFRRQAGASPDAVAVVAGERTLSYADLDRESDRLAGHLAGIGVGRGDRVGVVMTRGADLFVALLGVWKAGAAQVPVNVDYPAERIERMLADVGASVAVCVEATRKAVPDGVEPVVVDLPVIGGVRPEAPPVTVGAHDVAYVMYTSGSTGVPKAVAVPHGSVAALASDPGWSQGPGDCVLLHASHAFDASLVEIWVPLVSGARVLVAEPGTVDAERLREAVSRGVTTVHLTAGAFRAVAEESPDSFIGLREILTGGDAVPLASVVRMRQACPDVRVRQLYGPTEITLCATWLVLEPGAATGDVLPIGRPLAGRQAYVLDAFLQPVAPNVTGELYLAGAGLAHGYLGNTAATSERFVANPFSGGGRMYRTGDLARWTDQGELVFAGRADSQVKIRGYRVEPGEVEVALTEVPHVAQAVVVAREGQPGEKRLIAYVTAEAGSALESAAVRAHLATRLPEFMVPSVVVVLESFPLTLNGKIDRAALPAPEFAGKAAGREPRTEAERVLCG
B3: CepB_M2_A: purified adenylation domain of CepB (PCZA363.4) module M2 (SEQ ID NO: 4); Amycolatopsis orientalis (protein, listed as Amycolatopsis orientalis)
chain: LPVGRLGVTSEPARASVVERWNSTGEAANRTSVLELFRQQADASPDAVAVMDAARTLSYADLDRESDRLAGYLAAMGVRRGDRVGVVMERGTDLFVALLAVWKAGAAQVPVNVDYPAERIERMLADAGASVAVCLEATRKAVPDGVEPVVMDVPAIDGVRHEAPQVTVGAHDLAYVMYTSGSTGVPKGVAVPHGSVAALASDPGWSQGPDDCVLLHASHAFDASLVEIWVPLVNGSRVMVAEPGAVDAERLREAISRGVTTVHLTAGAFRAVAEESPDSFTGLREILTGGDAVPLASVVRMRRACPDVRVRQLYGPTEITLCATWHVIEPGAETGDTLPIGRPLAGRQAYVLDAFLQPVAPNVTGELYIAGAGLAHGYLGNNGSTSERFIANPFASGERMYRTGDLARWTDQGELLFAGRADSQVKIRGYRVEPGEIEVALTEVPHVAQAVVVAREDHPGDKRLIAYVTAEEGPALAADAVREHLAARMPEFMVPAVVLVLDSFPLTLNGKIDRAALPAPEFTGKAAGREPRTETERVLC
B4: StaC_M2_A: purified adenylation domain of StaC module M2 (SEQ ID NO: 8); Streptomyces toyocaensis (protein, listed as Streptomyces toyocaensis)
chain: LPVGRLGVTSDATRTSEVERWNATGEAAGGASVVELFRRRSAGTPDAVAVVDGDRTLSYGDLDRESDRLAGRLAETGVRRGDHVGVVLERGADLFVAFLAVWKAGAAYVPVHVDYPPVRIERMLADAGVTVAVCAEGTRNAVPDGLEPVPVDAPWAGETRHETPTVTARDAAYVMYTSGSTGEPKGIVVPHGSVAALAGDPGWALDADDCVLMHASHAFDASLFEIWAPLVRGARVMVAEPGAVDTQRLREAVARGVTTVHLTAGSFRVLAEESPGSFDGLREILTGGDVVPLASVAQLRRACPDVRVRHLYGPTETTLCGTWHLLEPGDEPGDVLPIGRPLAGRRAYVLDAFLQPVAPNVTGELYLAGVGLALGYLGARGATSERFVADPFVPGERMYRTGDLARRNDRGELLFAGRADAQVKIRGYRVEPTEIETVLAEAPQVAQTVVVAREDGPGEKRLIAYAIAEPDQVLDPEALREHLAARLPEFMVPAAVVVLDDFPLTINGKIDREALPAPEFSAKPAGREPRTEAERVLC

Key:
Assay type in all cases: biochemical
[1] = PPi release assay, adenylation activity with L-hydroxyphenylglycine; details: substrate L-hydroxyphenylglycine
Description: (§1) These assays use inorganic pyrophosphatases to convert PPi produced during aminoacyl-AMP formation to orthophosphate (Pi). To measure Pi concentrations some of these assays use molybdate/malachite green reagent for colorimetric detection (McQuade et al. 2008) or, as used in the context of the present invention, a shift in absorbance maximum by conversion of 7-methyl-6-thioguanosine (MESG) by purine nucleoside phosphorylase (Ehmann D. E. et al. (Proc. Natl. Acad. Sci. (2000) 97, 2509-2514) or Daniel & Aldrich (Anal. Biochem. (2010) 404, 56-63)).
(§2) To determine the adenylation activity of the adenylation domains, the Enzchek® pyrophosphate assay kit (Life Technologies) was used as described by Ehmann D. E. et al. (Proc Nat Acad Science (2000) 97, 2509-2514) with small modifications. The reactions were performed 96 wells UV/Vis transparent plates (BD Falcon). The reaction mixture comprises 50 mM HEPES pH 8.0, 10 mM MgCl2, 5 mM ATP, 75 mM DTT, 0.03 U Inorganic Pyrophosphatase (IP), 1 U Purine Nucleoside Phosphorylase (PNP) and 0.2 mM MESG in a volume of 70 μl. Next 20 μl (around 0.5-2 μM final concentration) of purified A(T) domain, with or without co-purification of the MbtH like helper protein was added and the reaction was pre-incubated for 15 minutes at RT to reduce contaminating Pi. Following the pre-incubation, 10 μl of a 10 mM or 1 mM solution of the appropriate amino acid depending on the performed specificity determination was added to initiate the adenylation reaction and the absorbance at 360 nm was measured using a TECAN I Control spectrophotometer. Absorbance measurements were made every 5 to 10 min over a period of up to 240 min. A reaction with addition of 10 μl MilliQ water instead was used to determine and subtract the background absorbance. As substrates the following amino acids were used: D- or L-phenylalanine, D- or L-hydroxyphenylglycine, D- or L-phenylglycine, L-tryptophan, L-valine, L-cysteine, and L-leucine.

[2] = PPi release assay, adenylation activity with D-hydroxyphenylglycine; details: substrate D-hydroxyphenylglycine
Description: as §1, §2

[3] = PPi release assay, adenylation activity with L-phenylalanine; details: substrate L-phenylalanine
Description: as §1, §2

[4] = PPi release assay, adenylation activity with D-phenylalanine; details: substrate D-phenylalanine
Description: as §1, §2

[5] = PPi release assay, adenylation activity with L-tryptophan; details: substrate L-tryptophan; protein alone; data not shown
Description: as §1
(§3) To determine the adenylation activity of the adenylation domains, the Enzchek® pyrophosphate assay kit (Life Technologies) was used as described by Ehmann D. E. et al. (Proc Nat Acad Science (2000) 97, 2509-2514) with small modifications. The reactions were performed 96 wells UV/Vis transparent plates (BD Falcon). […] Following the pre-incubation, 10 μl of a 10 mM or 1 mM solution of the appropriate amino acid depending on the performed specificity determination was added to initiate the adenylation reaction and the absorbance at 360 nm was measured using a TECAN I Control spectrophotometer. Absorbance measurements were made every 5 to 10 min over a period of up to 240 min. A reaction with addition of 10 μl MilliQ water instead was used to determine and subtract the background absorbance. […]

[6] = PPi release assay, adenylation activity with L-valine; details: substrate L-valine; protein alone; data not shown
Description: as §1, §3

[7] = PPi release assay, adenylation activity with L-leucine; details: substrate L-leucine; protein alone; data not shown
Description: as §1, §3

[8] = PPi release assay, adenylation activity with L-cysteine; details: substrate L-cysteine; protein alone; data not shown
Description: as §1, §3

[9] = protein alone, without MbtH-like protein
[10] = co-purified with MbtH-like protein Tcp13

Row | Molecule | adenylation activity (absorption 360 nm, PPi release assay) [1, 9] | adenylation activity (absorption 360 nm, PPi release assay) [2, 9] | adenylation activity (absorption 360 nm, PPi release assay) [3, 9] | adenylation activity (absorption 360 nm, PPi release assay) [4, 9] | adenylation activity (PPi release assay) [5] | adenylation activity (PPi release assay) [6] | adenylation activity (PPi release assay) [7] | adenylation activity (PPi release assay) [8] | adenylation activity (absorption 360 nm, PPi release assay) [1, 10] | adenylation activity (absorption 360 nm, PPi release assay) [2, 10] | adenylation activity (absorption 360 nm, PPi release assay) [3, 10] | adenylation activity (absorption 360 nm, PPi release assay) [4, 10]
1 | B1 | no adenylation activity | no adenylation activity | accepted as substrate | accepted as substrate | similarly recognized and adenylated | similarly recognized and adenylated | similarly recognized and adenylated | no adenylation activity |  |  |  | 
2 | B2 | No adenylation activity | No adenylation activity | No adenylation activity | No adenylation activity |  |  |  |  | clear adenylation activity | clear adenylation activity | no activity | no activity
3 | B3 | No adenylation activity | No adenylation activity | No adenylation activity | No adenylation activity |  |  |  |  | clear adenylation activity | clear adenylation activity | no activity | no activity
4 | B4 | No adenylation activity | No adenylation activity | No adenylation activity | No adenylation activity |  |  |  |  | clear adenylation activity | clear adenylation activity | no activity | no activity
